First the molecules themselves.
T1: human FcγRIIb (human, UniProt P31994 43-217)
T1 construct: also called FcgRIIb; FcγIIB
T1 sequence: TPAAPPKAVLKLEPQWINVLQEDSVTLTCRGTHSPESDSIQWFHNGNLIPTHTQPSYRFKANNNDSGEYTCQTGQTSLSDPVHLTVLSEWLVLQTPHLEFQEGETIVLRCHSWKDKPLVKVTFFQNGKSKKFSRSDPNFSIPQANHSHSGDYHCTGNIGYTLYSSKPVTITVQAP

T2: human FcγRIIa type R (human, UniProt P12318 36-217)
T2 construct: also called FcgRIIaR; FcγRIIa(R)
T2 chain: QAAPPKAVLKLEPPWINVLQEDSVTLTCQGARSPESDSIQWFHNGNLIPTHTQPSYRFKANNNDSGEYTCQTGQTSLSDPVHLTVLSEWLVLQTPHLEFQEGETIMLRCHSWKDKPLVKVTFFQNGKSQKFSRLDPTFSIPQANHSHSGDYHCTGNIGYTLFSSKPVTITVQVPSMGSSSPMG

T3: human FcγRIIa type H (human, UniProt P12318 36-217)
T3 construct: also called FcgRIIaH; FcγRIIa(H)
T3 sequence: T2 chain with R133H

B1: IL6R-2B261/IL6R-L (antibody, human IgG1)
heavy: QVQLQESGPGLVKPSETLSLTCAVSGHSISHDHAWSWVRQPPGEGLEWIGFISYSGITNYNPSLQGRVTISRDNSKNTLYLQMNSLRAEDTAVYYCARSLARTTAMDYWGEGTLVTVSSASTKGPSVFPLAPSSKSTSGGTAALGCLVKDYFPEPVTVSWNSGALTSGVHTFPAVLQSSGLYSLSSVVTVPSSSLGTQTYICNVNHKPSNTKVDKKVEPKSCDKTHTCPPCPAPDLLGGDSVFLFPPKPKDTLMISRTPEVTCVVVDVSHEDPEVKFNWYVDGVEVHNAKTKPREEQDNSTYRVVSVLTVLHQDWLNGKEYKCKVSNKALPAPIEKTISKAKGQPREPQVYTLPPSRDELTKNQVSLTCLVKGFYPSDIAVEWESNGQPENNYKTTPPVLDSDGSFFLYSKLTVDKSRWQQGNVFSCSVMHEALHNHYTQESLSLSP
light: DIQMTQSPSSLSASVGDRVTITCRASQDISSYLNWYQQKPGKAPKLLIYYTSRLHSGVPSRFSGSGSGTDFTFTISSLQPEDIATYYCQQGNTLPYTFGQGTKVEIK
B2: IL6R-BP083/IL6R-L (antibody, human IgG1)
heavy: B1 heavy with D235E, A332K
light: B1 light
notes: The variants were built on IL6R-BF648 (P238D), so it is read as P238D
B3: IL6R-BP145/IL6R-L (antibody, human IgG1)
heavy: B1 heavy with D235E, L236Y, G239D, D298Y
light: B1 light
B4: IL6R-B3/IL6R-L (antibody, human IgG1)
heavy: not shown
light: B1 light
notes: Parent polypeptide
B5: IL6R-BP148/IL6R-L (antibody, human IgG1)
heavy: B1 heavy with L236Y, G239D, D298Y, K328A, A332K
light: B1 light
B6: IL6R-BP133/IL6R-L (antibody, human IgG1)
heavy: B1 heavy with L236Y, D298Y, A332K
light: B1 light
B7: IL6R-BP143/IL6R-L (antibody, human IgG1)
heavy: B1 heavy with D235E, L236Y, D298Y, K328A
light: B1 light
B8: IL6R-BP144/IL6R-L (antibody, human IgG1)
heavy: B1 heavy with D235E, G239D, D298Y, K328A
light: B1 light
B9: IL6R-BP086/IL6R-L (antibody, human IgG1)
heavy: B1 heavy with D235E, D298Y, K328A, A332K
light: B1 light
B10: IL6R-BP089/IL6R-L (antibody, human IgG1)
heavy: B1 heavy with D235E, L236Y, D298Y, K328A, A332K
light: B1 light
B11: IL6R-BF648/IL6R-L (antibody, human IgG1)
heavy: not shown
light: B1 light
B12: IL6R-BP129/IL6R-L (antibody, human IgG1)
heavy: B1 heavy with A332K
light: B1 light
B13: IL6R-BP085/IL6R-L (antibody, human IgG1)
heavy: B1 heavy with D235E, G239D, D298Y, A332K
light: B1 light
B14: IL6R-BP087/IL6R-L (antibody, human IgG1)
heavy: B1 heavy with D235E, L236Y, D298Y, A332K
light: B1 light
B15: IL6R-BP132/IL6R-L (antibody, human IgG1)
heavy: B1 heavy with D298Y, K328A, A332K
light: B1 light
B16: IL6R-BP084/IL6R-L (antibody, human IgG1)
heavy: B1 heavy with D235E, D298Y, V325M, A332K
light: B1 light
B17: IL6R-BP088/IL6R-L (antibody, human IgG1)
heavy: B1 heavy with D235E, G239D, D298Y, K328A, A332K
light: B1 light

Substitutions are numbered along the chain they refer to. Names and notes keep the numbering of the source.

T4 sequence (P12314 16-292 limits assumed): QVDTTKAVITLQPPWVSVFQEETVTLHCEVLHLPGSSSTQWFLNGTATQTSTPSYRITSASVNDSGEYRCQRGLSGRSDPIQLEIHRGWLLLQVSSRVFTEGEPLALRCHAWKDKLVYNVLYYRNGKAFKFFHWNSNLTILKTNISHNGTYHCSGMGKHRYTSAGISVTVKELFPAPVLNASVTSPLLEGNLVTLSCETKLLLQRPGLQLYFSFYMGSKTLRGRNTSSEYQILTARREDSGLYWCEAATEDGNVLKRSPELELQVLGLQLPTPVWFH

The first assay has as its target T4, human FcγRIa (human, UniProt P12314 16-292, limits assumed).
T4 construct: also called FcgRIa; CD64
As to the kind of experiment: SPR (Biacore), FcγR over captured antibody; binding amount / that of IL6R-BF648/IL6R-L x100.
Method: (§1) According to the following method, relative binding activities were calculated for the results of analyzing interactions with the respective FcγRs.
In the case of B1, the relative binding activity is 100 % of IL6R-BF648/IL6R-L.

B2: the relative binding activity is 50 % of IL6R-BF648/IL6R-L.

In the case of B3, the relative binding activity is 41 % of IL6R-BF648/IL6R-L.

B4: the relative binding activity was 145 % of IL6R-BF648/IL6R-L.

Take B5: the relative binding activity is 33 % of IL6R-BF648/IL6R-L.

Take B6: the relative binding activity is 41 % of IL6R-BF648/IL6R-L.

For the molecule B7, the relative binding activity was 86 % of IL6R-BF648/IL6R-L.

For B8, the relative binding activity is 64 % of IL6R-BF648/IL6R-L.

In the case of B9, the relative binding activity is 72 % of IL6R-BF648/IL6R-L.

Turning to B10, the relative binding activity is 43 % of IL6R-BF648/IL6R-L.

Consider B11, for which the relative binding activity is 100 % of IL6R-BF648/IL6R-L.

As for B12, the relative binding activity was 68 % of IL6R-BF648/IL6R-L.

For the molecule B13, the relative binding activity was 19 % of IL6R-BF648/IL6R-L.

As to B14, the relative binding activity was 33 % of IL6R-BF648/IL6R-L.

As to B15, the relative binding activity is 91 % of IL6R-BF648/IL6R-L.

Regarding B16, the relative binding activity is 109 % of IL6R-BF648/IL6R-L.

In the case of B17, the relative binding activity is 25 % of IL6R-BF648/IL6R-L.

A further assay concerns the target T1, human FcγRIIb. Described as above.
Method: as §1
Turning to B1, the relative binding activity was 115 % of IL6R-BF648/IL6R-L.

In the case of B2, the relative binding activity was 122 % of IL6R-BF648/IL6R-L.

With B3, the relative binding activity was 152 % of IL6R-BF648/IL6R-L.

Consider B4, for which the relative binding activity is 58 % of IL6R-BF648/IL6R-L.

Regarding B5, the relative binding activity is 176 % of IL6R-BF648/IL6R-L.

B6: the relative binding activity is 137 % of IL6R-BF648/IL6R-L.

In the case of B7, the relative binding activity is 133 % of IL6R-BF648/IL6R-L.

As for B8, the relative binding activity is 121 % of IL6R-BF648/IL6R-L.

Regarding B9, the relative binding activity is 137 % of IL6R-BF648/IL6R-L.

In the case of B10, the relative binding activity was 147 % of IL6R-BF648/IL6R-L.

For B11, the relative binding activity was 100 % of IL6R-BF648/IL6R-L.

As to B12, the relative binding activity is 138 % of IL6R-BF648/IL6R-L.

For the molecule B13, the relative binding activity was 152 % of IL6R-BF648/IL6R-L.

As to B14, the relative binding activity is 137 % of IL6R-BF648/IL6R-L.

For the molecule B15, the relative binding activity is 150 % of IL6R-BF648/IL6R-L.

In the case of B16, the relative binding activity was 141 % of IL6R-BF648/IL6R-L.

In the case of B17, the relative binding activity is 161 % of IL6R-BF648/IL6R-L.

In the next assay the target is T5, human FcγRIIIa type V (human, UniProt P08637 17-208, limits assumed).
T5 construct: Allotype V158 was used; also called FcgRIIIaV; FcγRIIIa(V)
T5 sequence (P08637 other isoform, or with tags, fused parts or gaps limits assumed): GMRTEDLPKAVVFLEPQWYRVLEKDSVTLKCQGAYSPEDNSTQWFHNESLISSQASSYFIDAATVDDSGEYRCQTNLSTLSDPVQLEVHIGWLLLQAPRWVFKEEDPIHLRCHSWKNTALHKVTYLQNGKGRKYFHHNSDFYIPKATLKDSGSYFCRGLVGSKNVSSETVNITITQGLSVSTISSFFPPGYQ
The description is as above.
Method: as §1
For B1, the relative binding activity is 87 % of IL6R-BF648/IL6R-L.

For B2, the relative binding activity was 107 % of IL6R-BF648/IL6R-L.

Turning to B3, the relative binding activity is 153 % of IL6R-BF648/IL6R-L.

For B4, the relative binding activity was 3260 % of IL6R-BF648/IL6R-L.

As for B5, the relative binding activity was 227 % of IL6R-BF648/IL6R-L.

Consider B6, for which the relative binding activity was 114 % of IL6R-BF648/IL6R-L.

With B7, the relative binding activity was 114 % of IL6R-BF648/IL6R-L.

For the molecule B8, the relative binding activity was 128 % of IL6R-BF648/IL6R-L.

Regarding B9, the relative binding activity is 123 % of IL6R-BF648/IL6R-L.

Regarding B10, the relative binding activity was 136 % of IL6R-BF648/IL6R-L.

With B11, the relative binding activity was 100 % of IL6R-BF648/IL6R-L.

Take B12: the relative binding activity was 95 % of IL6R-BF648/IL6R-L.

B13: the relative binding activity is 104 % of IL6R-BF648/IL6R-L.

As to B14, the relative binding activity was 158 % of IL6R-BF648/IL6R-L.

B15: the relative binding activity was 120 % of IL6R-BF648/IL6R-L.

Regarding B16, the relative binding activity is 106 % of IL6R-BF648/IL6R-L.

For B17, the relative binding activity is 122 % of IL6R-BF648/IL6R-L.

The target in another assay is T2, human FcγRIIa type R. The assay is described as above.
Method: as §1
Take B1: the relative binding activity is 94 % of IL6R-BF648/IL6R-L.

In the case of B2, the relative binding activity was 87 % of IL6R-BF648/IL6R-L.

As to B3, the relative binding activity was 350 % of IL6R-BF648/IL6R-L.

Consider B4, for which the relative binding activity was 625 % of IL6R-BF648/IL6R-L.

As for B5, the relative binding activity was 603 % of IL6R-BF648/IL6R-L.

Regarding B6, the relative binding activity was 174 % of IL6R-BF648/IL6R-L.

For the molecule B7, the relative binding activity was 238 % of IL6R-BF648/IL6R-L.

B8: the relative binding activity is 204 % of IL6R-BF648/IL6R-L.

B9: the relative binding activity is 155 % of IL6R-BF648/IL6R-L.

As to B10, the relative binding activity was 222 % of IL6R-BF648/IL6R-L.

Consider B11, for which the relative binding activity is 100 % of IL6R-BF648/IL6R-L.

With B12, the relative binding activity is 111 % of IL6R-BF648/IL6R-L.

Turning to B13, the relative binding activity is 279 % of IL6R-BF648/IL6R-L.

Take B14: the relative binding activity was 163 % of IL6R-BF648/IL6R-L.

For the molecule B15, the relative binding activity was 191 % of IL6R-BF648/IL6R-L.

In the case of B16, the relative binding activity is 203 % of IL6R-BF648/IL6R-L.

B17: the relative binding activity was 377 % of IL6R-BF648/IL6R-L.

Another assay has as its target T3, human FcγRIIa type H. The assay is described as above.
Method: as §1
For the molecule B1, the relative binding activity is 91 % of IL6R-BF648/IL6R-L.

For the molecule B2, the relative binding activity is 91 % of IL6R-BF648/IL6R-L.

In the case of B3, the relative binding activity is 224 % of IL6R-BF648/IL6R-L.

Consider B4, for which the relative binding activity is 1600 % of IL6R-BF648/IL6R-L.

B5: the relative binding activity is 462 % of IL6R-BF648/IL6R-L.

Regarding B6, the relative binding activity is 151 % of IL6R-BF648/IL6R-L.

For the molecule B7, the relative binding activity was 143 % of IL6R-BF648/IL6R-L.

On to B8, for which the relative binding activity was 108 % of IL6R-BF648/IL6R-L.

Regarding B9, the relative binding activity was 116 % of IL6R-BF648/IL6R-L.

Take B10: the relative binding activity is 186 % of IL6R-BF648/IL6R-L.

On to B11, for which the relative binding activity was 100 % of IL6R-BF648/IL6R-L.

With B12, the relative binding activity was 98 % of IL6R-BF648/IL6R-L.

As to B13, the relative binding activity was 158 % of IL6R-BF648/IL6R-L.

Regarding B14, the relative binding activity is 179 % of IL6R-BF648/IL6R-L.

For the molecule B15, the relative binding activity was 130 % of IL6R-BF648/IL6R-L.

On to B16, for which the relative binding activity is 162 % of IL6R-BF648/IL6R-L.

Consider B17, for which the relative binding activity is 166 % of IL6R-BF648/IL6R-L.

Values taken from patent publication US20140105889A1 (published 2014).
